According to the RNAGym collection of RNA variant scans (doi:10.1073/pnas.2313332121):
Variants at the floor of the assay were thinned out.

B1: TPR 5TU (parent)
chain: GGAUCUUCUCGAUCUAACAAAAAAGACAAAUCUGCCACAAAGCUUGAGAGCAUCUUCGGAUGCAGAGGCGGCAGCCUUCGGUGGCGCGAUAGCGCCAACGUUCUCAACUAUGACACGCAAAACGCGUGCUCCGUUGAAUGGAGUUUAUCAUG

Variants of: B1
Assay: polymerase ribozyme fitness, log enrichment relative to wild type (log ratio); higher = more active; in vitro selection for triplet polymerase activity
Summary of the method: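 Genotype fitness is the logarithm of its enrichment divided by wild-type enrichment, using inverse-variance-weighted averages of replicates. That logarithm is base 2. Enrichment was measured by Illumina sequencing of input and output libraries from one triplicate in vitro selection round, with frozen incubation at −7 °C, on PCR-built, transcribed mutant libraries of each subunit of a heterodimeric triplet polymerase ribozyme, retaining genotypes with ≥10 input reads and ≥1 read per output.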

Row | Variant | polymerase ribozyme fitness (log ratio)
1 | A17C A21U A29U U53G A73G G94A | ≤ -4.2
2 | G59U U78G C79A C87U U109G A110U | -3.99
3 | A24C G74C U90G C99G U127A | ≤ -4.2
4 | C36A U45A U61A C87U A97C G126A | ≤ -4.2
5 | A21U C57U C93U C96A C116U | -1.6
6 | G11A C43G U90C G94A | -4.13
7 | G50C A52C U56C C96U A107U | ≤ -4.2
8 | A26C G42A A107C | ≤ -4.2
9 | G25C C27A A28G A40U C149A | ≤ -4.2
10 | U55G G81A C118U U135G | -3.84
11 | A40G C116G A120U | -1.72
12 | G84C A115G | -2.49
13 | U45A U77G G83C U146A | ≤ -4.2
14 | A29C U33G G34U G50C G84C G100C C108A A113U G141U | ≤ -4.2
15 | A29G A30U C85A A107U C118G | ≤ -4.2
16 | U82G G84A G86U C118G | ≤ -4.2
17 | A20G C125A | -0.707
18 | C14G A52G C75U C85U U144C | -3.71
19 | A30U U33C A138G | ≤ -4.2
20 | A47C G59A | 0.309
21 | A89G C131A | -2.5

Row | Variant | polymerase ribozyme fitness (log ratio)
22 | G48A G86A A89C G94A U151G | ≤ -4.2
23 | U109A G141A A142U | ≤ -4.2
24 | U15G A110G | -3.59
25 | C8A G11A G50C U82A G83C | ≤ -4.2
26 | A16C G62C | -2.47
27 | A91G U130G | ≤ -4.2
28 | A30G A41U U135A A137U | ≤ -4.2
29 | A12G C79U G86C A120G C125U | ≤ -4.2
30 | A30C G59C A60C C93A C99U C114A | ≤ -4.2
31 | U53G C87U A120C | -2.07
32 | C35U A41C U53A C75G C114U G136U | ≤ -4.2
33 | A28C A60G C69U G74A U135G A138U G141U | ≤ -4.2
34 | U45A G92C U144A | -3.41
35 | G58A G100U | -3.22
36 | C63U C85U C87U | -0.425
37 | A28U A30U A39U G50C C57G C75G U82A G83C G124U | ≤ -4.2
38 | U7C A19U C35U A37G U55G C76G G86A G88U C103G G124A | ≤ -4.2
39 | A17U A28U C38U | ≤ -4.2
40 | U61A G84A G92U G100U | ≤ -4.2
41 | U15G G48A U53A A73G C85A | ≤ -4.2
42 | C57G G65C G84A U139A G140U | ≤ -4.2

Row | Variant | polymerase ribozyme fitness (log ratio)
43 | C54G C76A A89C A98U A115U U151A | ≤ -4.2
44 | U4A C8A U56A A122G G141A | -4.11
45 | C72G | -3.79
46 | G83C C93U | -2.49
47 | U55A C76G A138C | ≤ -4.2
48 | A12G U77C | -3.98
49 | A37G G58C C85A | -3.83
50 | C76A | -0.118
51 | A19U A20C A26U C85U C118A C125U U134G G143A | ≤ -4.2
52 | G58U C63G A142C | -1.41
53 | A41G U53C U55A U82G U127G | -4.02
54 | G46C A49U C72U C116U | ≤ -4.2
55 | U15C G84C C125U U134G A150U | ≤ -4.2
56 | A12G A20U A23C G141U | ≤ -4.2
57 | A40C U55A U104C | -0.475
58 | G46A U61G C103A C118G | ≤ -4.2
59 | C57U C116G | 0.474
60 | C27G C54A C93A A115U | ≤ -4.2
61 | A40U G42U C69U A89G A91U A106C C149U | ≤ -4.2
62 | G84A C93U | -1.83
63 | A115C U145C | -2.43

Row | Variant | polymerase ribozyme fitness (log ratio)
64 | C57U U135G | -4.05
65 | G83U A142C U145C | -3.76
66 | A3C C32U G59A | -3.67
67 | U45A A115C | ≤ -4.2
68 | C8U C27U A115G | -4.06
69 | U55G G84A A89U C103U | -1.64
70 | A40U G84U C85A | -0.755
71 | C93G A142C | -4.02
72 | U53A U101G C125A | -0.788
73 | A21U C35A G50C A91G U134G | ≤ -4.2
74 | C69A U139C G140A U148A | ≤ -4.2
75 | A3C U7G C14U A52G | -3.28
76 | U82G A110G C125G A137U | ≤ -4.2
77 | U90G C93G C99U | ≤ -4.2
78 | A41C U148C | -3.07
79 | A19G G50A G67A A91U C93A | ≤ -4.2
80 | A28U A29U A37G A66U A73U U78G G84A | ≤ -4.2
81 | A91U A106U G117A G136U | ≤ -4.2
82 | C87U A137G | -1.81
83 | G50A U53A A91U G124A C131G A137C | ≤ -4.2
